In patent publication US20210230266A1 (SINGAPORE HEALTH SERVICES PTE, published 2021):

T1: Human IL-11 (human, UniProt P20809 22-199)
T1 construct: Recombinant human IL-11 (GenScript Cat. No. Z03108-1) or IL-11 secreted by human cells; the mature form is said to have 178 residues; also called recombinant human IL-11; endogenously produced IL-11
T1 sequence: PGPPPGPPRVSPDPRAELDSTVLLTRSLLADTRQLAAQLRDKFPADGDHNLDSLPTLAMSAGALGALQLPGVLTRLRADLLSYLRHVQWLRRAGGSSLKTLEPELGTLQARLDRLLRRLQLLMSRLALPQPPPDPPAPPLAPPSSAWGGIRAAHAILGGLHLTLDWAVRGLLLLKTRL

T2: Mouse IL-11 (mouse, UniProt P47873 22-199, limits assumed)
T2 construct: also called murine IL-11; recombinant murine IL-11
T2 sequence (looked up): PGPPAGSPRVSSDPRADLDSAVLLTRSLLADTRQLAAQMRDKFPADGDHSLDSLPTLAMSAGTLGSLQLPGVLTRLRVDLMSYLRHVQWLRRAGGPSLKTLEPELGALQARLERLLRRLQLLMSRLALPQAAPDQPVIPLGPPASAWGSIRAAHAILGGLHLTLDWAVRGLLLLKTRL


Tests used:
Human IL-11 [1] = biological target: T1, Human IL-11; assay: SPR (BIAcore T200) single cycle kinetics, human IL-11 on CM5 chip, 1:1 model
Text: HEK293 EBNDA cells were transfected with vectors encoding scFv corresponding to YU100-H01, 01A, 01G, 01I, 01L, 01Q, 01S, 01T, 01V, YU100-G08, 02A, 02G, 02I, 02L, 02Q, 02S, 02T or 02V.

Human IL-11 [2] = biological target: T1, Human IL-11; assay: cell-based or functional assay
Human IL-11 [3] = biological target: T1, Human IL-11; assay: ELISA on coated recombinant human IL-11 (100 ng/well), scFv-Fc
Procedure: The light chain shuffled anti-IL-11 antibodies were analysed to determine the EC50 for binding to human IL-11 by ELISA according to standard methods. Briefly, wells of microtiter plates were coated with recombinant human IL-11 (100 ng/well), scFv-Fc comprising the VH and VL domains of the clones were added in a dilution series and antibody binding was detected using a polyclonal antibody detection system.

Human IL-11 [4] = biological target: T1, Human IL-11; assay: ELISA
Procedure: (§1) The soluble scFv were produced by recombinant expression in E. coli, and analysed for their ability to bind to human IL-11 and murine IL-11 by ELISA. Briefly, the respective antigen was coated to wells of an ELISA plate, the cell culture supernatant containing the respective scFv was added at a 1:2 dilution, and binding was detected.

Mouse IL-11 = biological target: T2, Mouse IL-11; assay: ELISA
Procedure: as §1

| Binder | Kd (Human IL-11 [1]) [nM] | koff (Human IL-11 [1]) [s⁻¹] | kon (Human IL-11 [1]) [M⁻¹ s⁻¹] | MMP2 production, Experiment 1 (human atrial fibroblasts + TGFB1) (Human IL-11 [2]) [ng/mL] | MMP2 production, Experiment 2 (human atrial fibroblasts + TGFB1) (Human IL-11 [2]) [ng/mL] | EC50 (Human IL-11 [3]) [µg/mL] | hIL11 - average signal (Human IL-11 [4]) | mIL11 - average signal (Mouse IL-11) |
| --- | --- | --- | --- | --- | --- | --- | --- | --- |
| 02G (antibody, IgG1, V domains shown, C91G variant of the YU100-G08 VL) VH: QVQLVQSGGGVVQPGRSLRLSCAASGFTFSSYGMHWVRQAPGKGLEWVAVISYDGSNKYYADSVKGRFTISRDNSKNTLYLQMNSLRAEDTAVYYCAKIGATDPLDYWGQGTLVTVSS VL: QSALTQPRSVSGSPGQSVTLSCTGTSSDVGGYNYVSWYQHYPGKAPKLMIFDVNERSSGVPDRFSGSKSGNTASLTISGLQAEDEADYYCGSYAGRYTWMFGGGTKVTVLG | 1980 | 0.0537 | 27200 |  |  |  |  |  |
| 02T (antibody, IgG1, V domains shown, C91T variant of the YU100-G08 VL) VH: QVQLVQSGGGVVQPGRSLRLSCAASGFTFSSYGMHWVRQAPGKGLEWVAVISYDGSNKYYADSVKGRFTISRDNSKNTLYLQMNSLRAEDTAVYYCAKIGATDPLDYWGQGTLVTVSS VL: QSALTQPRSVSGSPGQSVTLSCTGTSSDVGGYNYVSWYQHYPGKAPKLMIFDVNERSSGVPDRFSGSKSGNTASLTISGLQAEDEADYYCTSYAGRYTWMFGGGTKVTVLG | 35 | 0.00207 | 59200 |  |  |  |  |  |
| 02I (antibody, IgG1, V domains shown, C91I variant of the YU100-G08 VL) VH: QVQLVQSGGGVVQPGRSLRLSCAASGFTFSSYGMHWVRQAPGKGLEWVAVISYDGSNKYYADSVKGRFTISRDNSKNTLYLQMNSLRAEDTAVYYCAKIGATDPLDYWGQGTLVTVSS VL: QSALTQPRSVSGSPGQSVTLSCTGTSSDVGGYNYVSWYQHYPGKAPKLMIFDVNERSSGVPDRFSGSKSGNTASLTISGLQAEDEADYYCISYAGRYTWMFGGGTKVTVLG | 2.89 | 0.00238 | 825000 |  |  |  |  |  |
| 02S (antibody, IgG1, V domains shown, C91S variant of the YU100-G08 VL) VH: QVQLVQSGGGVVQPGRSLRLSCAASGFTFSSYGMHWVRQAPGKGLEWVAVISYDGSNKYYADSVKGRFTISRDNSKNTLYLQMNSLRAEDTAVYYCAKIGATDPLDYWGQGTLVTVSS VL: QSALTQPRSVSGSPGQSVTLSCTGTSSDVGGYNYVSWYQHYPGKAPKLMIFDVNERSSGVPDRFSGSKSGNTASLTISGLQAEDEADYYCSSYAGRYTWMFGGGTKVTVLG | 4.99 | 0.00639 | 1.28e+06 |  |  |  |  |  |
| 02Q (antibody, IgG1, V domains shown, C91Q variant of the YU100-G08 VL) VH: QVQLVQSGGGVVQPGRSLRLSCAASGFTFSSYGMHWVRQAPGKGLEWVAVISYDGSNKYYADSVKGRFTISRDNSKNTLYLQMNSLRAEDTAVYYCAKIGATDPLDYWGQGTLVTVSS VL: QSALTQPRSVSGSPGQSVTLSCTGTSSDVGGYNYVSWYQHYPGKAPKLMIFDVNERSSGVPDRFSGSKSGNTASLTISGLQAEDEADYYCQSYAGRYTWMFGGGTKVTVLG | 5.84 | 0.00249 | 426000 |  |  |  |  |  |
| 02L (antibody, IgG1, V domains shown, C91L variant of the YU100-G08 VL) VH: QVQLVQSGGGVVQPGRSLRLSCAASGFTFSSYGMHWVRQAPGKGLEWVAVISYDGSNKYYADSVKGRFTISRDNSKNTLYLQMNSLRAEDTAVYYCAKIGATDPLDYWGQGTLVTVSS VL: QSALTQPRSVSGSPGQSVTLSCTGTSSDVGGYNYVSWYQHYPGKAPKLMIFDVNERSSGVPDRFSGSKSGNTASLTISGLQAEDEADYYCLSYAGRYTWMFGGGTKVTVLG | 4.36 | 0.00202 | 463000 |  |  |  |  |  |

The next lines start with the values.

| Kd (Human IL-11 [1]) [nM] | koff (Human IL-11 [1]) [s⁻¹] | kon (Human IL-11 [1]) [M⁻¹ s⁻¹] | MMP2 production, Experiment 1 (human atrial fibroblasts + TGFB1) (Human IL-11 [2]) [ng/mL] | MMP2 production, Experiment 2 (human atrial fibroblasts + TGFB1) (Human IL-11 [2]) [ng/mL] | EC50 (Human IL-11 [3]) [µg/mL] | hIL11 - average signal (Human IL-11 [4]) | mIL11 - average signal (Mouse IL-11) | Binder |
| --- | --- | --- | --- | --- | --- | --- | --- | --- |
| 10.4 | 0.00215 | 207000 |  |  |  |  |  | 02V (antibody, IgG1, V domains shown, C91V variant of the YU100-G08 VL) VH: QVQLVQSGGGVVQPGRSLRLSCAASGFTFSSYGMHWVRQAPGKGLEWVAVISYDGSNKYYADSVKGRFTISRDNSKNTLYLQMNSLRAEDTAVYYCAKIGATDPLDYWGQGTLVTVSS VL: QSALTQPRSVSGSPGQSVTLSCTGTSSDVGGYNYVSWYQHYPGKAPKLMIFDVNERSSGVPDRFSGSKSGNTASLTISGLQAEDEADYYCVSYAGRYTWMFGGGTKVTVLG |
|  |  |  | 51.2 | 47.2 | 0.038 | 0.447 | 0.475 | YU100-D11 (antibody) QVQLVQSGGGVVQPGRSLRLSCAASGFTFSSYGMHWVRQAPGKGLEWVAVISYDGSNKYYADSVKGRFTISRDNSKNTLYLQMNSLRAEDTAVYYCAKIGATDPLDYWGQGTLVTVSSGSASAPKLEEGEFSEARVQSALTQPRSVSGSPGQSVTISCTGTSSNVGGYNYVSWYQQHPGKAPKLMIYDVSKRPSGVPDRFSGSKSGNTASLTISGLQAEDEANYYCASYAGNYNWVFGGGTKLTVLGQPKAAPSVTLFPPSS |
|  |  |  | 56.3 | 50.2 | 0.027 | 0.16 | 0.275 | YU100-E05 (antibody) EVQLVQSGGGVVQPGRSLRLSCAASGFTFSSYGMHWVRQAPGKGLEWVAVISYDGSNKYYADSVKGRFTISRDNSKNTLYLQMNSLRAEDTAVYYCAKIGATDPLDYWGQGTLVTVSSGSASAPKLEEGEFSEARVQAVLTQPRSVSGSPGQSVTISCTGTSSDVGGYNYVSWYQQHPGKAPKLMIYDVSKRPSGVPDRFSGSKSGNTASLTISGLQAEDEADYYCCSYAGSYSWVFGGGTKLTVLGQPKAAPSVTLFPPSS |
|  |  |  | 50 | 43.5 | 0.036 | 0.36 | 0.472 | YU100-E04 (antibody) QVQLQQSGGGVVQPGRSLRLSCAASGFTFSSYGMHWVRQAPGKGLEWVAVISYDGSNKYYADSVKGRFTISRDNSKNTLYLQMNSLRAEDTAVYYCAKIGATDPLDYWGQGTLVTVSSGSASAPKLEEGEFSEARVQSALTQPRSVSGSPGQSVTISCTGTSSDVGGYNYVSWYQQHPGKTPKLMIYDVTKRPSGVPDHFSGSKSGNTASLTISGLQAEDEADYYCCSYAGSHIWVFGGGTKLTVLGQPKAAPSVTLFPPSS |
|  |  |  | 53.3 | 48.8 | 0.042 | 0.223 | 0.284 | YU100-D05 (antibody) QVQLQQSGGGVVQPGRSLRLSCAASGFTFSSYGMHWVRQAPGKGLEWVAVISYDGSNKYYADSVKGRFTISRDNSKNTLYLQMNSLRAEDTAVYYCAKIGATDPLDYWGQGTLVTVSSGSASAPKLEEGEFSEARVQSALTQPASVSGSPGQLITISCTGTNSDVGGYNYVSWYQQHPGKAPKLMIYDVSNRPSGVSNRFSGSKSGNTASLTISGLQAEDEADYYCCSYAGSYTWVFGGGTKLTVLGQPKAAPSVTLFPPSS |
|  |  |  | 54.1 | 48.2 | 0.024 | 0.173 | 0.309 | YU100-E06 (antibody) QVQLVESGGGVVQPGRSLRLSCAASGFTFSSYGMHWVRQAPGKGLEWVAVISYDGSNKYYADSVKGRFTISRDNSKNTLYLQMNSLRAEDTAVYYCAKIGATDPLDYWGQGTLVTVSSGSASAPKLEEGEFSEARVQSALTQPASVSGFPEQSITISCTGTSSDVGGYDYVSWYQQHPGKAPKLMIYDVTNRPSGVSNRFSGSKSGNTASLTISGLQPEDEADYYCSSYTSNTTWVFGGGTKLTVLRQPKAAPSVTLFPPSS |
|  |  |  | 53.5 | 49.1 | 0.058 | 0.71 | 0.561 | YU112-E07 (antibody) QVQLVQSGGGVVQPGRSLRLSCAASGFTFGSYGMHWVRQAPGKGLEWVAVISYDGSNKYYADSVKGRFTISRDNSKNTLYLQMNSLRAEDTAVYYCAKGSYYFDYWGQGTLVTVSSGSASAPKLEEGEFSEARVEIVMTQSPDSLAVSLGERATINCKSSQSVNSAYLAWYQHKPGQPPRLLIYGASRRVTGVPDRFSGSGSGTDFTLTISSLQPEDFATYYCQQSYSDPRWTFGQGTKVEIK |
|  |  |  | 59.3 | 51.8 | 0.03 | 0.207 | 0.238 | YU100-E01 (antibody) QVQLQQSGGGVVQPGRSLRLSCAASGFTFSSYGMHWVRQAPGKGLEWVAVISYDGSNKYYADSVKGRFTISRDNSKNTLYLQMNSLRAEDTAVYYCAKIGATDPLDYWGQGTLVTVSSGSASAPKLEEGEFSEARVQSALTQPASVSGSPGQSITISCTGTSNDIGAYNYVSWYQQHPGKAPKLLIYDVNNRPSGVSDRFSGSKSGNTASLTISGLQAEDEADYYCCSYAGSYSWVFGGGTKLTVLGQPKANPTVTLFPPSS |
